According to US20060052582:

What was measured:
[1] = target: myc 6His Nek6 (Nek6 with carboxy terminal myc/6His epitopes)
[2] = target: GST Nek7, unphosphorylated (bacterial recombinant)
GST Nek7, unphosphorylated (bacterial recombinant), sequence (chain, as listed by the source): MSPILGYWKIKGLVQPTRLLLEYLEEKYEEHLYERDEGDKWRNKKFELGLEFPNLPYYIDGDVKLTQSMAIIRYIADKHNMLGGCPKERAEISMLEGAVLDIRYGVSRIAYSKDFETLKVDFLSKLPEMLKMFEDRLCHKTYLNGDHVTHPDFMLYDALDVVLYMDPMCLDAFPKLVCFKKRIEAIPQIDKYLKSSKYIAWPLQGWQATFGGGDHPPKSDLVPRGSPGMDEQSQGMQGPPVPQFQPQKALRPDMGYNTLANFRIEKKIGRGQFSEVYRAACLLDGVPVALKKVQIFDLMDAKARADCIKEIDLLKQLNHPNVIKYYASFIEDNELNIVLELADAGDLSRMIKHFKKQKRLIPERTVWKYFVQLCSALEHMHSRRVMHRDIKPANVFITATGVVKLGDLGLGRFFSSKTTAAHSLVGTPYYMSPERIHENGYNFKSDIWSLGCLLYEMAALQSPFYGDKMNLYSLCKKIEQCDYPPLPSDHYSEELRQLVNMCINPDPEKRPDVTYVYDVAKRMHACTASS

GST Nek6, sequence (chain, as listed by the source): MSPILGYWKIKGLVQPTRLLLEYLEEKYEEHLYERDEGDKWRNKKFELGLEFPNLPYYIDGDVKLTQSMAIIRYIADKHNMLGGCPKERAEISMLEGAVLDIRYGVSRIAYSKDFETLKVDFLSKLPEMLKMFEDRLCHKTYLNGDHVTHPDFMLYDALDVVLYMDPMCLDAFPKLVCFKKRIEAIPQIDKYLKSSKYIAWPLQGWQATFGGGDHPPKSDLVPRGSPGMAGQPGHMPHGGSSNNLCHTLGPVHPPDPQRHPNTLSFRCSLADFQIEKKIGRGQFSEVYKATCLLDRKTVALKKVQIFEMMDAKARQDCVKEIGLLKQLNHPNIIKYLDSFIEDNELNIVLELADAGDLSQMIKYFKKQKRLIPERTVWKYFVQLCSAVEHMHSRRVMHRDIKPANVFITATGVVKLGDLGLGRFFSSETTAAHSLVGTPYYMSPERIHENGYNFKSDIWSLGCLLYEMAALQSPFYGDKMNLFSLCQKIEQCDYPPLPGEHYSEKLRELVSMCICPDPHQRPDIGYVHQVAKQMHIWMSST
myc 6His Nek6 (Nek6 with carboxy terminal myc/6His epitopes), sequence (chain, as listed by the source): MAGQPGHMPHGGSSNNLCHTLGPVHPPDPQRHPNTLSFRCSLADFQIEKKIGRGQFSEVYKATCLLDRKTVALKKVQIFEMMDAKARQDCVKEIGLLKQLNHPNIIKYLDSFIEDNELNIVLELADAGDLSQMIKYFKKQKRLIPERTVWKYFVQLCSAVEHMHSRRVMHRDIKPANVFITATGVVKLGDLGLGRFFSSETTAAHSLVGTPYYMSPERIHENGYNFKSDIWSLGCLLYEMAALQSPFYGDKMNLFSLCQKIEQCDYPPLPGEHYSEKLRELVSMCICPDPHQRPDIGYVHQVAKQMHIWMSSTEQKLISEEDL
GST Nek6 (K74M/K75M), sequence (chain, as listed by the source K74M K75M): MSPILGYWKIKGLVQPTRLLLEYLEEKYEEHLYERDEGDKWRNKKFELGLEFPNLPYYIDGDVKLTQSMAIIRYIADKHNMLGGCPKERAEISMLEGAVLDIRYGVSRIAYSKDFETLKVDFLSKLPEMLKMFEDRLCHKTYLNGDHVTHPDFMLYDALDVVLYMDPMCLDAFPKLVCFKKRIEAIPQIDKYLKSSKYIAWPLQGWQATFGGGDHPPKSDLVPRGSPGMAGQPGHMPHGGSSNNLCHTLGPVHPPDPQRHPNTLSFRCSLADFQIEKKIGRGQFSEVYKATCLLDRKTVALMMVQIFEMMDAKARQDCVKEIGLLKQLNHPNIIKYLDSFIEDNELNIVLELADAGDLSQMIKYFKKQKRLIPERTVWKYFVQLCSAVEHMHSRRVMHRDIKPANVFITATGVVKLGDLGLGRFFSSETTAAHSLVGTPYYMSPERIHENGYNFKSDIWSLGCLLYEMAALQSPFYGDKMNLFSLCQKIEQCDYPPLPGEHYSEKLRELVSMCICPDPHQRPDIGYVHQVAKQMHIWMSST

Protein	specific activity of coexpressed Nek6 [1]	Nek6/7 kinase activity (32P into GST Cdc16 Ct) (GST Nek6)	phosphorylation of Nek6 (K74M/K75M) at Ser206 in vitro (GST Nek6 (K74M/K75M))	Nek6/7 kinase activity (32P into GST Cdc16 Ct) [2]
FLAG Nercc (Δ347-732) (protein) MDYKDDDDKMSVLGEYERHCDSINSDFGSESGGCGDSSPGPSASQGPRAGGGAAEQEELHYIPIRVLGRGAFGEATLYRRTEDDSLVVWKEVDLTRLSEKERRDALNEIVILALLQHDNIIAYYNHFMDNTTLLIELEYCNGGNLYDKILRQKDKLFEEEMVVWYLFQIVSAVSCIHKAGILHRDIKTLNIFLTKANLIKLGDYGLAKKLNSEYSMAETLVGTPYYMSPELCQGVKYNFKSDIWAVGCVIFELLTLKRTFDATNPLNLCVKIVQGIRAMEVDSSQYSLELIQMVHSCLDQDPEQRPTADELLDRPLLRKRRREMEEKVTLLNAPTKRPRSSTVTEAPIAVVTSRTIRSNSSGLSIGTVFQSSSPGGGGGGGGGEEEDSQQESETPDPSGGFRGTMEADRGMEGLISPTEAMGNSNGASSSCPGWLRKELENAEFIPMPDSPSPLSAAFSESEKDTLPYEELQGLKVASEAPLEHKPQVEASSPRLNPAVTCAGKGTPLTPPACACSSLQVEVERLQGLVLKCLAEQQKLQQENLQIFTQLQKLNKKLEGGQQVGMHSKGTQTAKEEMEMDPKPDLDSDSGCLLGTDSCRPSL	a two-fold increase in the specific activity of coexpressed Nek6			
FLAG Nercc (full-length wild type Nercc1 kinase with FLAG epitope tag) (protein) MDYKDDDDKMSVLGEYERHCDSINSDFGSESGGCGDSSPGPSASQGPRAGGGAAEQEELHYIPIRVLGRGAFGEATLYRRTEDDSLVVWKEVDLTRLSEKERRDALNEIVILALLQHDNIIAYYNHFMDNTTLLIELEYCNGGNLYDKILRQKDKLFEEEMVVWYLFQIVSAVSCIHKAGILHRDIKTLNIFLTKANLIKLGDYGLAKKLNSEYSMAETLVGTPYYMSPELCQGVKYNFKSDIWAVGCVIFELLTLKRTFDATNPLNLCVKIVQGIRAMEVDSSQYSLELIQMVHSCLDQDPEQRPTADELLDRPLLRKRRREMEEKVTLLNAPTKRPRSSTVTEAPIAVVTSRTSEVYIWGGGKSTPQKLDVIKSGCSARQVCAGNTHFAVVTVEKELYTWVNMQGGTKLHGQLGHGDKASYRQPKHVEKLQGKAIHQVSCGDDFTVCVTDEGQLYAFGSDYYGCMGVDKVAGPEVLEPMQLNFFLSNPVEQVSCGDNHVVVLTRNKEVYSWGCGEYGRLGLDSEEDYYTPQKVDVPKALIIVAVQCGCDGTFLLTQSGKVLACGLNEFNKLGLNQCMSGIINHEAYHEVPYTTSFTLAKQLSFYKIRTIAPGKTHTAAIDERGRLLTFGCNKCGQLGVGNYKKRLGINLLGGPLGGKQVIRVSCGDEFTIAATDDNHIFAWGNGGNGRLAMTPTERPHGSDICTSWPRPIFGSLHHVPDLSCRGWHTILIVEKVLNSKTIRSNSSGLSIGTVFQSSSPGGGGGGGGGEEEDSQQESETPDPSGGFRGTMEADRGMEGLISPTEAMGNSNGASSSCPGWLRKELENAEFIPMPDSPSPLSAAFSESEKDTLPYEELQGLKVASEAPLEHKPQVEASSPRLNPAVTCAGKGTPLTPPACACSSLQVEVERLQGLVLKCLAEQQKLQQENLQIFTQLQKLNKKLEGGQQVGMHSKGTQTAKEEMEMDPKPDLDSDSGCLLGTDSCRPSL		20-25 fold activation of Nek6/7 kinase activity	This modification occurred, however, with a rather low efficiency	20-25 fold activation of Nek6/7 kinase activity
